According to paper doi:10.1101/2024.04.17.589973 (2024):
Positions count from the first letter of the chain named. Where no end group is shown, it is not given here.

B1: minibinder 8 with C-terminal Avi-His6 tag (designed binder)
chain: SLEEEAERVVEELVKEFNLSETQEIALRRYAEFAAKAGASEEVIEELLRRVAERLS-{Avi-His6}
modifications: also: biotin (for BLI), position not given here
B2: minibinder 7 with C-terminal Avi-His6 tag (designed binder)
chain: SAMERYVKVLLRTAELAREAGDPEDVRKALEKAELVARILHNEELKEEIREVEEEL-{Avi tag-His6}
modifications: also: biotin
B3: minibinder 7.8 (designed binder)
chain: SAMEYYVKELLRTAEYAREAGDPEYVRKALEQAELVARILHNEELKEEIREVEEEL
modifications: also: biotinylated (site not given here)
B4: minibinder 7.9 (designed binder)
chain: B3 chain with K28N
modifications: also: biotinylated (site not given here)
B5: minibinder 7.10 (designed binder)
chain: B3 chain with D22E, K28N
modifications: also: biotin
B6: minibinder 7.11 (designed binder)
chain: B3 chain with Y25D
modifications: also: biotin
B7: minibinder 7.2 (designed binder)
chain: B3 chain with E9V, Q32K
modifications: also: biotin
B8: minibinder 7.12 (designed binder)
chain: B3 chain with Y25D, K28N
modifications: also: biotin
B9: minibinder 7.3 (designed binder)
chain: B3 chain with E9V
modifications: also: biotin
B10: minibinder 7.5 (designed binder)
chain: B3 chain with E9V, Y25D
modifications: also: biotin
B11: minibinder 7.4 (designed binder)
chain: B3 chain with K8N, E9V, Y25D, Q32K
modifications: also: biotin
B12: minibinder 7.7 (designed binder)
chain: B3 chain with Q32K
modifications: also: biotin
B13: minibinder 7.6 (designed binder)
chain: B3 chain with Y25D, Q32K
modifications: also: biotin
B14: minibinder 8.5 (designed binder)
chain: SLEEEAERVVEELVKEFNLSRTQEIALRRYAEYAARATASEEVIEELLRRVAERLS
modifications: also: biotin (for BLI), position not given here
B15: minibinder 8.2 (designed binder)
chain: B14 chain with R21E, R36K, T38G
modifications: also: biotin (for BLI), position not given here
B16: minibinder 8.4 (designed binder)
chain: B14 chain with T38G
modifications: also: biotin (for BLI), position not given here
B17: minibinder 8.3 (designed binder)
chain: B14 chain with R36K, T38G
modifications: also: biotin (for BLI), position not given here
B18: minibinder 8.1 (designed binder)
chain: B14 chain with Y33F, R36K, T38G
modifications: also: biotinylated (site not given here)
B19: minibinder 6 with C-terminal Avi-His6 tag (designed binder)
chain: SAVELYLELLERSLRLAVEAGDPEDAERILRKARQIARVFNDPELEEIVERMEEILK-{Avi tag-His6}
modifications: also: biotin

target: T1, human TLR3 ectodomain (Wuxi Biologics, custom order) (human, UniProt O15455 24-704, biotin (for yeast display)); assay: BLI

| Kd [nM] | Binder |
| --- | --- |
| 1200 | B1 |
| 440 | B2 |

target: T1, human TLR3 ectodomain (Wuxi Biologics, …); assay: BLI; remark: another data set of the same source

| Kd [nM] | Binder |
| --- | --- |
| 40 | B3 |
| 95 | B4 |
| 190 | B5 |
| 45 | B6 |
| 17 | B7 |
| 108 | B8 |
| 29 | B9 |
| 1.1 | B10 |
| 34 | B11 |
| 31 | B12 |
| 24 | B13 |

target: T1, human TLR3 ectodomain (Wuxi Biologics, …); assay: BLI; remark: another data set of the same source

| Kd [nM] | Binder |
| --- | --- |
| 170 | B14 |
| 600 | B15 |
| 230 | B16 |
| 230 | B17 |
| 690 | B18 |

target: T1, human TLR3 ectodomain (Wuxi Biologics, …); assay: BLI; remark: another data set of the same source

| Kd [nM] | Binder |
| --- | --- |
| 43 | B19 |
